In patent US20190085097A1 (published 2019):

What was measured:
human plasmin = human plasmin (human, UniProt P00747 97-810, limits assumed); experiment: cell-based or functional assay
human plasminogen = target: T1, human plasminogen (human, UniProt P00747 20-810); experiment: saturation binding ELISA, human plasminogen coated at 2 ug/ml, one-site hyperbola fit
T1 construct: also called h Pg
Description: Saturation binding assay. Saturation binding assays were performed by ELISA in 96-well plates coated with 2 ug/ml of plasmin or plasminogen at room temperature for 1 hour. Wells were washed with PBS-T: (10 mM phosphate buffer pH 7.4, 150 mM NaCl, 0.05% Tween 20) six times. Non-specific protein binding sites were blocked with 1% BSA for 1 hour at room temperature. After washing the plate as above, various concentrations of antibody (0.002 to 100 ug/ml) were added to the plate in duplicate and for 1 hour at room temperature. The plate was washed and horseradish peroxidase (HRP) conjugated goat anti-mouse secondary antibody (1:8000, Santa Cruz, Dallas, Tex.) was added to the plate. After 1 hour incubation at room temperature, the plate was washed and TMB was added. The absorbance was then read at 370 nm.

mouse plasminogen = target: T2, mouse plasminogen (mouse, UniProt P20918 20-812); experiment: ELISA, antigen coated at 10 ug/ml, antibody supernatant, compared with anti-digoxin control
T2 construct: also called mouse (m) Pg
T2 sequence (P20918 20-812 limits assumed): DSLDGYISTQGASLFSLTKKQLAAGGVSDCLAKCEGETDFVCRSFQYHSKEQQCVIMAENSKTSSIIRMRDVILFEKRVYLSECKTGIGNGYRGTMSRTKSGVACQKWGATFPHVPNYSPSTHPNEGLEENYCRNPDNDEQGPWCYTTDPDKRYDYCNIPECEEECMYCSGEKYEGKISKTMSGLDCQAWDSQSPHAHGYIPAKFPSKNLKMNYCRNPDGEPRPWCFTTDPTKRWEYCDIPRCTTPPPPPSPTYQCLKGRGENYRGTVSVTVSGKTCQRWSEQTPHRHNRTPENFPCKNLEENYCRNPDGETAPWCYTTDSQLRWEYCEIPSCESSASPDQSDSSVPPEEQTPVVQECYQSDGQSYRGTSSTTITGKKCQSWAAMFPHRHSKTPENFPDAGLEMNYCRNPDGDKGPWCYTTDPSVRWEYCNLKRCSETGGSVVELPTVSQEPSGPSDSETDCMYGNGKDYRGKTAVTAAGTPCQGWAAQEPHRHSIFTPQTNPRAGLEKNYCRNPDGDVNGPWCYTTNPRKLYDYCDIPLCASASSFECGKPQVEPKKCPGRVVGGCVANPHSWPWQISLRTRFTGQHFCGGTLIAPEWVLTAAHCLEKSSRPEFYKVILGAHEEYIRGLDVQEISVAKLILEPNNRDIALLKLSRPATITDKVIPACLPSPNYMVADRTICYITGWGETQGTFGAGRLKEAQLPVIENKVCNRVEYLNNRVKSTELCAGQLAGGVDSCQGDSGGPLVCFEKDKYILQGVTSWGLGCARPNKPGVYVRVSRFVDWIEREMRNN
Description: (§1) Then goat anti mouse antibody conjugated with HRP (1:5000, Sc-2005, Santa Cruz) was then added. The plate was washed after incubation for 1 h. TMB was added to the wells and absorbance at 370nm was recorded.

bovine serum albumin = target: T3, bovine serum albumin (bovine, UniProt P02769 25-607); experiment: as above
T3 construct: also called BSA
T3 sequence (P02769 25-607 limits assumed): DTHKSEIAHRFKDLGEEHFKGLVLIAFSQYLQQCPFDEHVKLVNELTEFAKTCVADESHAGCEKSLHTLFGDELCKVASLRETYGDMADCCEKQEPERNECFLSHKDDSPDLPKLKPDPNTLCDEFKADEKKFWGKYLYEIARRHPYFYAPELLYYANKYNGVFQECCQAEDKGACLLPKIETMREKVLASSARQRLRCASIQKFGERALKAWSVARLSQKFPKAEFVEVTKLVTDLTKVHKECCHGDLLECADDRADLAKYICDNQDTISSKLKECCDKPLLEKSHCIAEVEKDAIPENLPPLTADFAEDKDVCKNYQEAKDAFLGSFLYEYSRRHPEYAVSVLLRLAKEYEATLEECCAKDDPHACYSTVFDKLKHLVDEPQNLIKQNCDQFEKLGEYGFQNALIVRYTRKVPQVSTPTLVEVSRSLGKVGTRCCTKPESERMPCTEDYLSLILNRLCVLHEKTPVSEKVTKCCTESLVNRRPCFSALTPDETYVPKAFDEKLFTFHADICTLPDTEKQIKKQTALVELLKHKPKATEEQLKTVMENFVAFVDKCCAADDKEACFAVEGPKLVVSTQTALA
Description: as §1

human tPA = human tPA (human, UniProt P00750 36-562); experiment: as above
human tPA, sequence (P00750 36-562 limits assumed): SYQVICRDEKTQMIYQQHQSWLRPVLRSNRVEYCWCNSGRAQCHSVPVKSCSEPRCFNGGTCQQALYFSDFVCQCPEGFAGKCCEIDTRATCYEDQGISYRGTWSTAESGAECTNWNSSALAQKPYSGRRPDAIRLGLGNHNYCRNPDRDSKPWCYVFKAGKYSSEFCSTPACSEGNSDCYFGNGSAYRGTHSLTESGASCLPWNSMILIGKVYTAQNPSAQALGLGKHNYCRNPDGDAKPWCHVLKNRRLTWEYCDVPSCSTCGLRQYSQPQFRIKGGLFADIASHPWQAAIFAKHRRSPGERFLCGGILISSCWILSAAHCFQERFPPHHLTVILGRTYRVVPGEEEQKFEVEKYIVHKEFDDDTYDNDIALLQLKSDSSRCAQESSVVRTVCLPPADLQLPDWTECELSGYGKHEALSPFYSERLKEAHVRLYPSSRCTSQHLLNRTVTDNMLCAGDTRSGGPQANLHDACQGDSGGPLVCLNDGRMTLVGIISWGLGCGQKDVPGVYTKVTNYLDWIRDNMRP
Description: as §1

T1 sequence (P00747 20-810 limits assumed): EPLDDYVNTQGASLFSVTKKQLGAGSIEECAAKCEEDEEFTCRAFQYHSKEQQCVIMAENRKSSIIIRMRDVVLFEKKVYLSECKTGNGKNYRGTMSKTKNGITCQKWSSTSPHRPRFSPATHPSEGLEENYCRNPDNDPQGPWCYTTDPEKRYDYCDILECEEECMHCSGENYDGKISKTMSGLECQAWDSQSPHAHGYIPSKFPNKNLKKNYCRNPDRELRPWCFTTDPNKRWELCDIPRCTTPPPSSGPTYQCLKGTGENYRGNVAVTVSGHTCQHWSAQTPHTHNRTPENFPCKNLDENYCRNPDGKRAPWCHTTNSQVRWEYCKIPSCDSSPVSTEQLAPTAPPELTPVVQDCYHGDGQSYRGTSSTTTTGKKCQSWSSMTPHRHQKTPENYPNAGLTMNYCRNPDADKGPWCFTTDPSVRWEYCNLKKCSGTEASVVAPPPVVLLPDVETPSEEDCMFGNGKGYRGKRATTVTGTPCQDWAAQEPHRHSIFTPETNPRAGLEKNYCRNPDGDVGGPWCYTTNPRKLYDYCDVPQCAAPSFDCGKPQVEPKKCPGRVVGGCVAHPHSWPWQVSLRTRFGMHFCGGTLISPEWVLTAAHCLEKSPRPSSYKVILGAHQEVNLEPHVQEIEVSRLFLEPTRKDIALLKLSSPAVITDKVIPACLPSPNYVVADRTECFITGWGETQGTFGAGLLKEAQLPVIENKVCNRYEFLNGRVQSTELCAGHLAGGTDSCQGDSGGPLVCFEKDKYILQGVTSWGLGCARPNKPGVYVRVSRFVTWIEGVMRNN
human plasmin, sequence (P00747 97-810 limits assumed): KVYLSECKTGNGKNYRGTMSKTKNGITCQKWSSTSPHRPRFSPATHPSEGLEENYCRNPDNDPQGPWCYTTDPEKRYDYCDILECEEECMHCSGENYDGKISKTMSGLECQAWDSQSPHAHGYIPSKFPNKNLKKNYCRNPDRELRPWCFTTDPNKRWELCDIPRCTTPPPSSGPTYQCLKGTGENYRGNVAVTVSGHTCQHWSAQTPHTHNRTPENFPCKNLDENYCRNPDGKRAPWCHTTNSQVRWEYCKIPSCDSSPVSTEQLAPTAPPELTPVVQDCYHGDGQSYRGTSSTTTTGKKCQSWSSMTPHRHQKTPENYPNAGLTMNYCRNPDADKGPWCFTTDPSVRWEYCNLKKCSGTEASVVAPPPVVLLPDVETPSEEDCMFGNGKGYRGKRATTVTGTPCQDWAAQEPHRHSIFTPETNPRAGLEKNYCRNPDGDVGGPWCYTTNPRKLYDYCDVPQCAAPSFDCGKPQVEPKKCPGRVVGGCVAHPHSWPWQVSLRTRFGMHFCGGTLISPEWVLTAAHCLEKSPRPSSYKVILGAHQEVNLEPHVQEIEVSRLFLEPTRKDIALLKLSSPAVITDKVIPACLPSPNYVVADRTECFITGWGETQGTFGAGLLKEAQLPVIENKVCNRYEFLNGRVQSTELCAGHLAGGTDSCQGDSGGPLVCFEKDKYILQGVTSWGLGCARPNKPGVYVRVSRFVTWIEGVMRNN

plasmin-mediated fibrinolysis of human fibrin clots (125I-fibrin release, tPA) (human plasmin): ~5000 fold more potent than EACA | Kd (human plasminogen): 3.4 nM | binding result (mouse plasminogen): no binding | binding result (bovine serum albumin): no binding | binding result (human tPA): no binding
B1: monoclonal antibody plasmin inhibitor (Pi) (antibody, mouse IgG1, kappa, V domains shown)
VH: EVKLLESGGGLVQPGGSLKLSCAASGFDFSRYWMSWVRQAPGKGLEWIGEINPDSSTINYTPSLKDKFIISRDNAKNSLYLQMSKVRSEDTALYYCASYCGYSYDALDCWGQGTSVTVSS
VL: DIQMTQSPSSLSASLGGKVSITCKASQDINKYISWYQHKPGKGPRLLIHYTSTLQPGIPSRFSGSGSGRDYSFSISNLEPEDIATYYCLQYDNLYTFGGGTKLEIKR
notes: Mouse hybridoma IgG purified from supernatant; also called Pi IgG; Pi MAb38
